Test results as given in PMC3161508 (Advances in experimental medicine and biology, 2010).

Molecular target: the molecule itself
Experiment: non-reducing SDS-PAGE and Western blotting

B1: cone CNG channel β subunit CNGB3 (natural protein, mouse (endogenous in retina), UniProt Q9JJZ9 1-694, looked up)
chain: MLKSLTVKFNKVNPMEGRMEKKLCPNLSSLSQPTIAQGDNQSEKEPLRSRTPITFEKSHSKEDNSTGENSLRDFTPNPDPECRAELTRTMAEMEKTRTGKERPVSFKTKVLETSIINEYTDAHLHNLVERMRERTALYKKTLTEEENFPEVEASSQTAMSTNISPKQENNSKLKEHQDTFSFKPQRVPVKEHLRRMILPRSIDSYTDRVYLLWLLLVTIAYNWNCWLLPVRLVFPCQTPDNKNYWIITDIVCDIIYLCDILLIQPRLQFVRGGEIIVDSNELKRNYRSSTKFRMDVASLLPFEVLYIFFGVNPIFRANRILKYTSFFEFNHHLESIMDKAYVYRVIRTTGYLLFLLHINACVYYWASDYEGIGSTKWVYNGEGNKYLRCFYWAVRTLITIGGLPEPQTSFEIVFQFLNFFSGVFVFSSLIGQMRDVIGAATANQNYFQACMDHIIAYMNKYSIPQSVQYRVRTWLEYTWNSQRILDESNLLENLPTAMQLSIALDINFSIIDKVELFKGCDTQMIYDLLLRLKSTIYLPGDFVCKKGEIGKEMYIIKHGEVQVLGGPDGAQVLVTLKAGSVFGEISLLAKGGGNRRTADVVAHGFANLLTLDKKTLQEILLHYPTSKKLLMKKAKILLSQKGKTTQAIPARPGPAFLFPPKEETPRMLKVLLGNTGKVDLGRLLKGKRKTTTQK
stoichiometry N: 2
